Experimental data published in patent US20200157194A1 (Regeneron, published 2020).
Read-outs that look alike come from different tables or passages of the source.

T1: recombinant human GREM1 (hGREM1-His; C-terminal 10His tagged, R&D, #5190-GR) (human, UniProt O60565 25-184, limits assumed)
T1 sequence: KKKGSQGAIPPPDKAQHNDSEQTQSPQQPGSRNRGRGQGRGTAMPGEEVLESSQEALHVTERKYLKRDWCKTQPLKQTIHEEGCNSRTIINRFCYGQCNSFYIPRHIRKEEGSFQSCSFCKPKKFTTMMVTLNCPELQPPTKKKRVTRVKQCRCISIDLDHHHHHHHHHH

T2: human GREM1 (hGREM1-His; SEQ ID NO: 595) (human, UniProt O60565 25-184)
T2 construct: also called biotin-hGREM1-His; recombinant human GREM1 protein
T2 sequence: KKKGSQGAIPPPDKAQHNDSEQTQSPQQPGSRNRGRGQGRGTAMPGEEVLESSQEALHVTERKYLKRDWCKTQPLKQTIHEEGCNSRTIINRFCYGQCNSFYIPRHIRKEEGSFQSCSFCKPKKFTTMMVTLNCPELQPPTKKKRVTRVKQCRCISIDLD


Columns and labels:
[1] = molecular target: T1, recombinant human GREM1 (hGREM1-His; …); assay: cell-based or functional assay
[2] = molecular target: T1, recombinant human GREM1 (hGREM1-His; …); assay: BLI Octet, mAb captured, 100 nM GREM1;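 further: octet Red96 biolayer interferometry at 25 °C in pH 7.4 HEPES saline buffer, antibodies held on anti-human IgG Fc capture biosensors, then exposed to GREM1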
Protocol: Binding measurements were conducted using an Octet Red96 label-free biomolecular interaction instrument (ForteBio). All experiments were performed at 25° C. using plate agitation at 1000 rpm. Solutions were made in an aqueous buffer containing 10 mM HEPES, 150 mM NaCl, 3 mM EDTA 0.05% P20, 0.1 mg/mL BSA and adjusted to pH of 7.4 (HBST buffer).
Anti-Human IgG Fc Capture biosensors (ForteBio) were separately loaded with 50 μg/mL solutions of 24 different anti-GREM1 antibodies for 60 seconds. Following a 30 second wash, duplicate biosensors for each antibody were submerged into wells containing either 100 nM GREM1 solutions or 100 nM GREM1 solutions containing 5 μM of heparin, measuring association for 300 seconds.

[3] = molecular target: T1, recombinant human GREM1 (hGREM1-His; …); assay: BLI Octet, mAb captured, 100 nM GREM1 without vs with 5 uM heparin;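 further: octet Red96 biolayer interferometry at 25 °C, antibodies captured on anti-human IgG Fc biosensors, association of GREM1 measured with versus without heparin in HEPES-buffered saline, pH 7.4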
[4] = molecular target: T2, human GREM1 (hGREM1-His; SEQ ID NO: 595); assay: SPR, Biacore T200, 25 C, mAb captured, hGREM1-His injected;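 further: Heparin-supplemented HBS-EP+ used as running buffer, association and dissociation phases followed, Kd computed as koff divided by kon and half-life derived from koff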
[5] = molecular target: T1, recombinant human GREM1 (hGREM1-His; …); assay: cell-based or functional assay; remark: listed apart in the source
[6] = molecular target: T2, human GREM1 (hGREM1-His; SEQ ID NO: 595); assay: competition ELISA, biotin-hGREM1-His (100 pM) binding to coated hBMP4
Protocol: Data were analyzed using a sigmoidal dose-response model within Prism™ software. […] The absorbance values of the wells containing the highest concentration for each antibody were used to determine the percent maximum blocking.

[7] = molecular target: T1, recombinant human GREM1 (hGREM1-His; …); assay: BLI Octet, mAb captured, 100 nM GREM1 + 5 uM heparin;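 further: octet Red96 biolayer interferometry at 25 °C, antibodies captured on anti-human IgG Fc biosensors, pH 7.4 HEPES buffer with 0.1 mg/mL BSA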
[8] = molecular target: T2, human GREM1 (hGREM1-His; SEQ ID NO: 595); assay: SPR, Biacore T200, 37 C, mAb captured, hGREM1-His injected;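 further: HBS-EP running buffer containing heparin, association and dissociation phases tracked, KD computed as koff over kon and half-life derived from koff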
[9] = molecular target: T1, recombinant human GREM1 (hGREM1-His; …); assay: cell-based or functional assay; remark: listed apart in the source

| Binder | hGREM1-His Inhibition IC50, M; W-20-17 cell differentiation assay (alkaline phosphatase) [1] [nM] | Binding Signal with 30 sec Association [2] [nm] | Binding Signal with 300 sec Association [2] [nm] | Reduction in Signal from Heparin at 30 sec [3] [nm] | Reduction in Signal from Heparin at 300 sec [3] [nm] | Kd [4] [nM] | koff [4] [s⁻¹] | kon [4] [M⁻¹ s⁻¹] | t1/2 [4] [min] | IC50 [M], inhibition of hGREM1-His, W-20-17/BRE-luc luciferase (100 pM hBMP4, 10 nM hGREM1-His) [5] [M] | % blocked at maximum Ab tested (20 nM) [6] [%] | IC50 [6] [nM] | Binding Signal with 30 sec Association [7] [nm] | Binding Signal with 300 sec Association [7] [nm] | Kd [8] [nM] | koff [8] [s⁻¹] | kon [8] [M⁻¹ s⁻¹] | t1/2 [8] [min] | IC50 [M], inhibition of hGREM1-His, W-20-17/BRE-luc luciferase (100 pM hBMP4, 10 nM hGREM1-His) [9] [M] | also measured |
| --- | --- | --- | --- | --- | --- | --- | --- | --- | --- | --- | --- | --- | --- | --- | --- | --- | --- | --- | --- | --- |
| H4H6251P (antibody, human IgG4, V domains shown, H4H prefix = human IgG4 Fc) VH: QVQLVESGGGVVQPGKSLRLSCAASGFTFSRYGMHWVRQAPGKGLEWVAVIWYDGSNKYYADSVKGRFTISRDNSKNTLYLQMNSLRADDTAMYYCARDDYGDSPGFDFWGQGTLVTVSS VL: EIVMTQSPATLSVSPGERATLSCRASQSVSSNLAWYQQKPGQAPRLLIYDASTRATGIPARFSGTGSGTEFTLTISSLQSEDFALYYCQQYDDWPPWTFGQGTKVEIK | 11 | 0.27 | 0.45 | 0.24 | 0.09 | 23.1 | 0.000652 | 28200 | 18 | 6.3e-10 | 62 | 0.11 | 0.03 | 0.36 | 275 | 0.00694 | 25300 | 2 |  |  |
| H4H6270P (antibody, human IgG4, V domains shown, H4H prefix = human IgG4 Fc) VH: QVQLVESGGDVVQPGRSLRLSCAASGFTFSSYGMHWVRQAPGKGLEWVAIIWNDGSNKYYTDSVKGRFTISRDNSKNTLYLQMNGLRAEDTAIYYCARDQDQFDYWGQGTLVTVSS VL: EIVMTQSPATLSVSPGERATLSCRASQSISTNLAWYRQKPGQAPRLLIYDASTRATGIPARFSGSGSGTDFTLTISSLQSEDFAVYYCQQYSNWPPYTFGQGTKLEIK | 3.1 | 0.2 | 0.39 | 0.15 | 0.06 | 4.08 | 0.000175 | 42900 | 66 | 5.4e-10 | 62 | 1.9 | 0.05 | 0.33 | 6.79 | 0.00065 | 95800 | 18 |  |  |
| H2bM2891N (antibody, mouse IgG2, V domains shown, H2M prefix = mouse IgG2 Fc (here H2bM); also called H2M2891N) VH: EVQMVESGGGLVQPGGSLRLSCAASRFTLSNYWMGWVRQAPGKGLEWVANIKQDGSEKYYVDSVRGRFTISRDNAKNSLYLQMNSLRAEDTAVYYCARDYDFWRSFDYWGQGTLVTVPS VL: DIQMTQSPSSVSASVGDRVTITCRASQGVSSWLAWYQQTPGKAPKLLIYVVSSLQSGVPSRFSGSGSGTDFTLTINSLQPEDFATYYCQQGNSFPYTFGQGTKLEIK |  |  |  |  |  | 60 | 0.0012 | 20000 | 9.6 |  |  |  |  |  |  |  |  |  | 1.1e-09 |  |
| H2bM2906N (antibody, mouse IgG2, V domains shown, H2M prefix = mouse IgG2 Fc (here H2bM); also called H2M2906N) VH: EVQMVESGGGLVQPGGSLRLSCAASGFTLSNYWMGWVRQAPGKGLEWVANIKQDGSEKYYVDSVRGRFTISRDNAKNSLYLQMNSLRAEDTAVYYCARDYDFWRSFDYWGQGTLVTVSS VL: DIQMTQSPSSVSASVGDRVTITCRASQGVSSWLAWYQQKPGKTPKLLIYVVSSLQSGVPSRFSGRGSGTDFTLTINSLQPEDFATYYCQQGNSFPYTFGQGTKLEIK |  |  |  |  |  | 15 | 0.0013 | 80000 | 8.9 |  |  |  |  |  |  |  |  |  | 1.6e-09 |  |
| H2bM2890N (antibody, mouse IgG2, V domains shown, H2M prefix = mouse IgG2 Fc (here H2bM); also called H2M2890N) VH: QVQLVESGGGVVQPGRSLRLTCAASGFTFSSFGMHWVRQAPGKGLEWVAIIWYDGSNKYYADSVKGRFTISRDNSKNTLYLQMNSLRAEDTAVYYCAREDNWTRDYFDYWGQGTLVTVSS VL: EIVLTQSPATLSLSPGERATLSCRASQSVSNFLAWYQQKPGQAPRLLIYDASNRATGIPARFSGSGSGTDFTLTISSLEPEDFAVYYCQQRSNWPPLPFGGGTKVEIK |  |  |  |  |  | 130 | 0.001 | 10000 | 11.6 |  |  |  |  |  |  |  |  |  | 2.1e-09 |  |
| H4H6260P (antibody, human IgG4, V domains shown, H4H prefix = human IgG4 Fc) VH: QVQLVESGGGVVQPGRSLRLSCAASGFTFSTYGMHWVRQAPGKGLEWVAIIWYDGSNYYYADSVKGRFTISRDNSKNTLYLQMNSLRAEDTAVYYCAREDRNDVFDIWGQGTMVTVSS VL: EIVLTQSPATLSLSPGERATLSCRASQSVSSFLAWYQQKPGQAPRLLIYDSSNRATGIPARFSGSGSGTDFTLTISSLEPEDFAVYYCQQLSNWPPITFGQGTRLEIK | 3.3 | 0.24 | 0.42 | 0.17 | 0.05 | 0.669 | 6.51e-05 | 97400 | 177 | 4.6e-10 | 87 | < 0.025 | 0.07 | 0.37 | 1.71 | 0.000285 | 166000 | 41 |  |  |
| H2aM2901N (antibody, mouse IgG2, V domains shown, H2M prefix = mouse IgG2 Fc (here H2aM); also called H2M2901N) VH: EVQLVESGGGLVKPGGSLRLSCAASGFTFSYYSMIWVRQAPGKGLEWVSSISSSSSYIYYADSVKGRFTISRDNAKKSMYLQMNSLRAEDTAVYYCARGSGYPDYWGQGTLVTVSS VL: DIQMTQSPSSLSASVGDRVTITCRASQGINNYLAWYQQKPGKVPKLLIYAASTLRSGVPSRFSGSGSGTDFTLTISSLQPEDVATYYCQKYNSAPFTFGPGTKVDIK |  |  |  |  |  | 8.8 | 0.00145 | 164000 | 8 |  |  |  |  |  |  |  |  |  | 1.7e-09 |  |
| H2aM2899N (antibody, mouse IgG2, V domains shown, H2M prefix = mouse IgG2 Fc (here H2aM); also called H2M2899N) VH: QVQLVQSGAEVKKPGASVKVSCKASGFTFTSYDINWVRQATGQGLEWMGWMNPKSGNTDYAQKFLGRVTLTRNTSKSTAYMELSSLRSEDTAVYYCARGKQLVFDYWGQGTLVTVSA VL: not shown |  |  |  |  |  | 270 | 0.002 | 8000 | 5.8 |  |  |  |  |  |  |  |  |  | 2.1e-09 |  |
| H2aM2898N (antibody, mouse IgG2, V domains shown, H2M prefix = mouse IgG2 Fc (here H2aM); also called H2M2898N) VH: EVQLVESGGGLVQPGGSLRLSCAASGFTFSIYDMHWVRQATGKGLEWVSGIGNAGDTYYAGSVKGRFTISRENAKNSLYLQMNSLRAGDTAVYYCAREGPNYYYYGMDVWGQGTTVTVSS VL: AIQMTQSPSSLSASVGDRVTITCRASQGIRDDLGWYQQKPGKAPKLLIYAASSLQSGVPSRFSGSGSGTDFTLTISSLQPEDFATYYCLQDYNYPWTFGQGTKVEIK |  |  |  |  |  |  |  |  |  |  |  |  |  |  |  |  |  |  | 1.4e-09 | binding result [4]: no binding (tested: 11 to 100 nM hGREM1-His injected) |
| H2bM2785N (antibody, mouse IgG2, V domains shown) VH: EVQLLESGGGLVQPGGSLRLSCAASGFTFSSYVMNWVRQAPGKGLEWVSAISGSGGSTSYADSVKGRSTISRDNSKNTLYLQMNSLRAEDTAVYYCAKGDIAAIVFDAFDIWGQGTMVTVSS VL: DIQMTQSPSSLSASVGDRVTITCQASQDISNCLNWYQHKPGKAPKLLIYDASYLETGGPSRFSGSGSGTDFTFTIRSLQPEDFATYYCQQYDNLPYTFGQGTKLEIK |  |  |  |  |  |  |  |  |  |  |  |  |  |  |  |  |  |  |  | IC50 [M], inhibition of hGREM1-His, W-20-17/BRE-luc luciferase (200 pM hBMP4, 20 nM hGREM1-His) [9]: 2.7e-08 M |
